Where two headings read alike, the source gives them in different places. Blank lines part the entries; values can stand above or below the molecule they belong to.
Columns and labels:
murine p22^phoxC = assay: ITC, binding to mouse p22phox cytoplasmic domain
Description: Complex formation between NOXO1, NOXA1 and p22^phox fragments or peptides were measured by isothermal titration calorimetry using a MicroCal VP-ITC calorimeter (MicroCal Inc., Northampton, USA). All proteins were dialysed against ITC buffer (150 mM NaCl, 1 mM DTT and 50 mM HEPES, pH 7.4) and performed at 18°C. All peptides were dissolved in ITC buffer. Typically, 20–40 µM of protein in the cell was titrated by stepwise injections of a total of 200–300 µM of the ligand. Heats of dilution were determined by titrating protein or peptide into ITC buffer and subtracted from the raw ITC data prior to analysis with the software, Origin version 7.0, assuming a single-site binding model. Data were averaged over three to five experiments.

p67^phox = details: cited from earlier work
Source text: The phagocytic oxidase is still the best characterized member of this protein family and consists of a heterodimeric flavocytochrome (containing NOX2 and p22^phox) that makes up the catalytic core of the enzyme plus the cytosolic regulatory subunits p40^phox, p47^phox and p67^phox and the small GTPase Rac, [16]–[18]. Because excessive ROS production is cytotoxic and can induce a number of pathological processes, complicated regulatory mechanisms have evolved that tightly control the activity of the phagocytic oxidase. […] To gain further insight into the molecular basis of complex formation between these two proteins we measured binding of the human and mouse NOXA1-SH3 ... || In the phagocytic oxidase the p47^phox-p67^phox interaction is unusually strong (Kd of 20 nM), [26], due to the presence of two protein interfaces: contacts are made via the conserved PxxPxR motif (at amino acids 363–368), but also via an additional surface composed of residues 369–390 of p47^phox, which fold into a helix-turn-helix (HTH) motif and pack against β-sheets 2, 3 and 4 of SH3B p67^phox. Removal of this additional binding motif reduces the affinity for p67^phox to 20 µM.

SH3 domain of NOXA1 = details: GST pull-downs; cited from earlier work
Source text: To gain further insight into the molecular basis of complex formation between these two proteins we measured binding of the human and mouse NOXA1-SH3 ...

NOXA1 = details: COS cells; cited from earlier work

Kd (murine p22^phoxC; ITC, 18°C, 150 mM NaCl, 1 mM DTT, 50 mM HEPES, pH 7.4, mouse p22^phoxC in syringe, NOXO1 construct in cell, averaged over three to five experiments, NB = no binding): 780 ± 60 nM | ΔH (murine p22^phoxC; ITC, 18°C, pH 7.4, mouse p22^phoxC in syringe, NB = no binding): -7.1 ± 0.05 kcal/mol | fold weakening of binding to p22^phox (murine p22^phoxC; mouse SH3AB–E in comparison to the tandem SH3 domains): around 10 -fold
B1: Mouse NOXO1 SH3AB–E: tandem SH3 domains plus the C-terminal portion of NOXO1 (mouse) (protein)
chain: QSIPCVQPFHTLDIRDRPFHTKAQEILDILLRHPSGWWLVENKDQQVAWFPAPYLEEVATCQGQESGLALQGSGRQFCTTQAYEGSRSDELSVPSGARVHVLETSDRGWWLCRYNGRTGLLPAMSLQPEGLGSLLGRPGFPDSAGADKVAEDRTIPPVVPTRPCMSAIQSRCCSITRRALGQEQGTRVPR
modifications: left off: GST, end not stated, cleaved

B2: p47^phox: cytosolic regulatory subunit of the phagocytic NADPH oxidase (protein, UniProt P14598 1-390, looked up)
Neutrophil cytosol factor 1: MGDTFIRHIALLGFEKRFVPSQHYVYMFLVKWQDLSEKVVYRRFTEIYEFHKTLKEMFPIEAGAINPENRIIPHLPAPKWFDGQRAAENRQGTLTEYCSTLMSLPTKISRCPHLLDFFKVRPDDLKLPTDNQTKKPETYLMPKDGKSTATDITGPIILQTYRAIANYEKTSGSEMALSTGDVVEVVEKSESGWWFCQMKAKRGWIPASFLEPLDSPDETEDPEPNYAGEPYVAIKAYTAVEGDEVSLLEGEAVEVIHKLLDGWWVIRKDDVTGYFPSMYLQKSGQDVSQAQRQIKRGAPPRRSSIRNAHSIHQRSRKRLSQDAYRRNSVRFLQQRRRQARPGPQSPGSPLEEERQTQRSKPQPAVPPRPSADLILNRCSESTKRKLASAV
Kd (p67^phox; additional binding motif (residues 369–390 of p47^phox) removed, ref [25], [26], read-out: affinity for p67^phox after removal of additional binding motif): 20000 nM | Kd (p67^phox; interaction with C-terminal SH3 domain of p67^phox, ref [25]–[27], read-out: affinity for p67^phox): 20 nM

B3: NOXO1: NOX organizing protein 1 (protein, UniProt Q8NFA2 1-376, looked up)
NADPH oxidase organizer 1: MAGPRYPVSVQGAALVQIKRLQTFAFSVRWSDGSDTFVRRSWDEFRQLKKTLKETFPVEAGLLRRSDRVLPKLLGQASLDAPLLGRVGRTSRGLARLQLLETYSRRLLATAERVARSPTITGFFAPQPLDLEPALPPGSRVILPTPEEQPLSRAAGRLSIHSLEAQSLRCLQPFCTQDTRDRPFQAQAQESLDVLLRHPSGWWLVENEDRQTAWFPAPYLEEAAPGQGREGGPSLGSSGPQFCASRAYESSRADELSVPAGARVRVLETSDRGWWLCRYGDRAGLLPAVLLRPEGLGALLSGTGFRGGDDPAGEARGFPEPSQATAPPPTVPTRPSPGAIQSRCCTVTRRALERRPRRQGRPRGCVDSVPHPTTEQ
binding to the SH3 domain of NOXA1 (SH3 domain of NOXA1): failed to bind the SH3 domain of NOXA1 | co-immunoprecipitation of NOXO1 and NOXA1 (NOXA1): both proteins could be co-immunopricipitated from COS cells
